According to US20240116985A1 (published 2024):
Starred links: 1 amine or outer side, 2 acyl side, 3 side chain; linkers in the order of their positions; H or OH if unused. Positions of bridges follow the written chain, without caps; N, C: chain ends. Non-standard residues stand in square brackets, D forms with d. Primed or numbered codes have the meaning given here. PyrS2″ = (S)-3-amino-1-((pent-4-en-1-yloxy)carbonyl)pyrrolidine-3-carboxylic acid (stapling residue), C=CCCCOC(=O)N1CC[C@@](N[*:1])(C(=O)[*:2])C1; B5(4) = 2,2-bis(4-pentenyl)glycine = 2-amino-2-(pent-4-en-1-yl)hept-6-enoic acid (stitching residue), C=CCCCC(CCCC=C)(N[*:1])C(=O)[*:2]; B5(3) = 2,2-bis(4-pentenyl)glycine (stitching residue), C=CCCCC(CCCC=C)(N[*:1])C(=O)[*:2]; Phe(3-COOH) = N[C@@H](Cc1cccc(C(=O)O)c1)C(=O)O; Phe(2-Cl) = N[C@@H](Cc1ccccc1Cl)C(=O)O; Bta = N[C@@H](Cc1csc2ccccc12)C(=O)O; αAllylPro = C=CC[C@@]1(C(=O)O)CCCN1; tBuAla = CC(C)(C)C[C@H](N)C(=O)O; 3Thi = N[C@@H](Cc1ccsc1)C(=O)O; PyrS2(4) = not defined here

T1: Bcat-Halo (UniProt P35222 1-781, HaloTag NanoBRET 618 Ligand bound to the Halo part)
T1 construct: Expressed in transfected HEK293 cells (NanoBRET acceptor construct); also called beta-catenin HaloTag fusion; not shown: HaloTag
T1 sequence (looked up): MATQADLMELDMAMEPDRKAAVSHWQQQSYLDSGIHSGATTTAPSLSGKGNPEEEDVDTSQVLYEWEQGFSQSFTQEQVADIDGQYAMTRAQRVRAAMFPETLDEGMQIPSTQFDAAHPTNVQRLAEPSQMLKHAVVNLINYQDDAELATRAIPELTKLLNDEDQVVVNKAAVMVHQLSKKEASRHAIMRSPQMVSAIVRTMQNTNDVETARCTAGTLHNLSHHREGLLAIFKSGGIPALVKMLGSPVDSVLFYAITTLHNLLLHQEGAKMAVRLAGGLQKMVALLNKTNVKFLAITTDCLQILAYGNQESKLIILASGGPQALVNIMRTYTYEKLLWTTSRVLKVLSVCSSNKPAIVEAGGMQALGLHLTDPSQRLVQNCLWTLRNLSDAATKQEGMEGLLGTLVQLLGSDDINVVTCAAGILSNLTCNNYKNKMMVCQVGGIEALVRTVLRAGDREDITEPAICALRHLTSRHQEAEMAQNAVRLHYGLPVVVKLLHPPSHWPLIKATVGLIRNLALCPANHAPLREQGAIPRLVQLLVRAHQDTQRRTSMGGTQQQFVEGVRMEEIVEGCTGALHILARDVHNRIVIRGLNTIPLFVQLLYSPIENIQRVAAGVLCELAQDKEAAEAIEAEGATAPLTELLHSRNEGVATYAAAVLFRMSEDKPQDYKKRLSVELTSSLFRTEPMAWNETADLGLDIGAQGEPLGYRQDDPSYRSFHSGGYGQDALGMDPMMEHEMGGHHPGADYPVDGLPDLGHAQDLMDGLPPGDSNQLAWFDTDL

T2: full-length beta-Catenin (Uniprot ID P35222) (Homo sapiens (Human), UniProt P35222 2-781)
T2 construct: Used at 10 nM in the FP probe solution as 'full-length'; Also used here for the endogenous beta-catenin of the DLD1 TCF/LEF reporter cells (functional rows); also called bCat; B-Catenin
T2 sequence: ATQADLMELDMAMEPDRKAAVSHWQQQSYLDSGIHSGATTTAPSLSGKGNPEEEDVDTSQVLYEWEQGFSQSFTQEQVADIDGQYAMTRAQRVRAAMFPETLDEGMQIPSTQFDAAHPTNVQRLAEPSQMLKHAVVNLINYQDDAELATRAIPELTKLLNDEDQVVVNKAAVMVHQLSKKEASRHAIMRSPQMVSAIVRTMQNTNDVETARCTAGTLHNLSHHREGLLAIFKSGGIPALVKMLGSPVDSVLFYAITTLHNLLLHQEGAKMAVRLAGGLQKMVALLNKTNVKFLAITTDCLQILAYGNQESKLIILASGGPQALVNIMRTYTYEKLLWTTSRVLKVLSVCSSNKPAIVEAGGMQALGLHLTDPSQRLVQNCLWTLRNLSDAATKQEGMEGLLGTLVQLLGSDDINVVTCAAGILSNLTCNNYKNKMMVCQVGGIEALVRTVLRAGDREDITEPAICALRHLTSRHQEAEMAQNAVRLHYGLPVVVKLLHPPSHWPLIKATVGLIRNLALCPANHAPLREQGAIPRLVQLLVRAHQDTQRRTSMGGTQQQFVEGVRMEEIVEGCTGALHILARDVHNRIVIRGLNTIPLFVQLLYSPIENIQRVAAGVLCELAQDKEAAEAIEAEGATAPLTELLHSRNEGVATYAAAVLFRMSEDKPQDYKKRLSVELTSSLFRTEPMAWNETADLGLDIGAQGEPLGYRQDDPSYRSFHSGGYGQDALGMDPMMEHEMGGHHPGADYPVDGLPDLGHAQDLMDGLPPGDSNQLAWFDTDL

T3: beta-catenin in DLD1 TCF/LEF luciferase reporter cells (Homo sapiens (Human), UniProt P35222 1-781)
T3 sequence: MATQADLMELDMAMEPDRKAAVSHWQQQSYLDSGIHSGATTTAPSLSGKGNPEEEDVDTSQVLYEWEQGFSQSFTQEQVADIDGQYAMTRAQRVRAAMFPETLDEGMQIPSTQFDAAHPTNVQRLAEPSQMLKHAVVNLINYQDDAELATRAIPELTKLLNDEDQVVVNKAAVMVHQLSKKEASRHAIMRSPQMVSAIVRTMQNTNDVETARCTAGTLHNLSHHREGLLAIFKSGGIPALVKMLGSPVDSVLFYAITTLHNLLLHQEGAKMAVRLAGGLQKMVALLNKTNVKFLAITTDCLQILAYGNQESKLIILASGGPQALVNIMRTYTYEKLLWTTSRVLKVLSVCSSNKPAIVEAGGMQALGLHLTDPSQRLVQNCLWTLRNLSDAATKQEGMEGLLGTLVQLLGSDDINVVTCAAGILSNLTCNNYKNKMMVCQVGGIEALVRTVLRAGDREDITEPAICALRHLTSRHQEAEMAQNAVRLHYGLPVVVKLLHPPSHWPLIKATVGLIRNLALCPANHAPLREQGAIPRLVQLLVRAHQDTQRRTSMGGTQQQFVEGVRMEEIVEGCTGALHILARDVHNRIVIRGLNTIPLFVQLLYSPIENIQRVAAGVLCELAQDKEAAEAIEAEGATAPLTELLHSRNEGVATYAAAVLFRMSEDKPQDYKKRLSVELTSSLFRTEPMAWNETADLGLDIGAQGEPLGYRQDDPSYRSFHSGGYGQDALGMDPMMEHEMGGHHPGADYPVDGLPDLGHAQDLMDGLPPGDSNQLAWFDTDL

T4: B-cat-Halo (Homo sapiens (Human), UniProt P35222 1-781)
T4 sequence: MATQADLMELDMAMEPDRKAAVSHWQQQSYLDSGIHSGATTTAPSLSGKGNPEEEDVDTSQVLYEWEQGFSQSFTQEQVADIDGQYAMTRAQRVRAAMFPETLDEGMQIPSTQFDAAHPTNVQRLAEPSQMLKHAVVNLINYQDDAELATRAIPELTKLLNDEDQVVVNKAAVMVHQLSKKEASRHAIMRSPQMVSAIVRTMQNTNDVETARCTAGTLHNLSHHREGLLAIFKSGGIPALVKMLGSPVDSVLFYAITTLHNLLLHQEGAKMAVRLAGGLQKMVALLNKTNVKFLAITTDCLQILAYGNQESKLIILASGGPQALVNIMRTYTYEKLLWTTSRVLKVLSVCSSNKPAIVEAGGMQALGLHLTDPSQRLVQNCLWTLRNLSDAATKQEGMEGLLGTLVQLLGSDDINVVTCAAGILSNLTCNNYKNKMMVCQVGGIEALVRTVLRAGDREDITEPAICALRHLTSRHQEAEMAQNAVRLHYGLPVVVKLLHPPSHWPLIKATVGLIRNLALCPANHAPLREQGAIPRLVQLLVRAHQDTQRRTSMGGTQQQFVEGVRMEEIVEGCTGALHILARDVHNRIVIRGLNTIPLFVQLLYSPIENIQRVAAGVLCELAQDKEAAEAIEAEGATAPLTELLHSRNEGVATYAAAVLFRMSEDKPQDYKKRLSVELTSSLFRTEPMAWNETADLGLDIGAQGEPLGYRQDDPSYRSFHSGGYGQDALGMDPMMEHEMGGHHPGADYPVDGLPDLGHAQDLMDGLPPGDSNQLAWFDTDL


Tests used:
[1] = biological target: T1, Bcat-Halo; test: NanoBRET Abs IC50, HEK293 cells transfected with Bcat-Halo and TCF4-Luc (competitor: TCF4-Luc); cellular assay
[2] = biological target: T2, full-length beta-Catenin (Uniprot ID …); test: fluorescence polarization competition; 10 nM full-length beta-catenin + 10 nM 5FAM-TCF4 10-53 as competitor probe
Description: The plate was incubated protected from light for 60 minutes at 20° C. prior to read. Reads were performed on a CLARIOstar plate reader (BMG Labtech) in duplicate, and data were fitted to a 1:1 binding model with hill slope using an in-house script. All provided concentrations are final concentrations.

[3] = biological target: T3, beta-catenin in DLD1 TCF/LEF luciferase …; test: cell-based or functional assay
[4] = biological target: T4, B-cat-Halo; test: cell-based or functional assay

Row | Binder | IC50 [1] [nM] | EC50 [2] [nM] | DLD1 4% Abs IC50 [3] [nM] | NanoBRET Abs IC50 [4] [nM]
1 | Ac-[αAllylPro]DF[B5(4)]DDAAFN[PyrS2″][Phe(2-Cl)][Bta]S-NH2 (staple 1-4, 4-11, Stapled (stitched) peptide composition) [I-1047] | 28400 | 5 | – | –
2 | Ac-[αAllylPro]D[tBuAla][B5(3)]D[Phe(3-COOH)]AAFL[PyrS2(4)][3Thi][Bta]NAA[dA]-NH2 (staple 1-4, 4-11; reading uncertain) [I-2047] | – | – | 1300 | 2600
